Holding throughout (test): two-hybrid; mammalian two-hybrid (Checkmate, Promega) in Vero cells; pACT and pBIND fusions in both orientations with the pG5luc reporter; firefly/Renilla luciferase at 48 h as fold of the control with empty pACT or pBIND
What all share (conditions): partners not purified

Experiment [1] addresses T1, ACBD3 (mammalian two-hybrid fusion) (UniProt Q9H3P7 1-528).
T1 construct: ACBD3, Golgi protein; two-hybrid construct not described; Two-hybrid construct not described in the methods; source: Vero cells, transfected, mammalian two-hybrid fusion
T1 sequence (looked up): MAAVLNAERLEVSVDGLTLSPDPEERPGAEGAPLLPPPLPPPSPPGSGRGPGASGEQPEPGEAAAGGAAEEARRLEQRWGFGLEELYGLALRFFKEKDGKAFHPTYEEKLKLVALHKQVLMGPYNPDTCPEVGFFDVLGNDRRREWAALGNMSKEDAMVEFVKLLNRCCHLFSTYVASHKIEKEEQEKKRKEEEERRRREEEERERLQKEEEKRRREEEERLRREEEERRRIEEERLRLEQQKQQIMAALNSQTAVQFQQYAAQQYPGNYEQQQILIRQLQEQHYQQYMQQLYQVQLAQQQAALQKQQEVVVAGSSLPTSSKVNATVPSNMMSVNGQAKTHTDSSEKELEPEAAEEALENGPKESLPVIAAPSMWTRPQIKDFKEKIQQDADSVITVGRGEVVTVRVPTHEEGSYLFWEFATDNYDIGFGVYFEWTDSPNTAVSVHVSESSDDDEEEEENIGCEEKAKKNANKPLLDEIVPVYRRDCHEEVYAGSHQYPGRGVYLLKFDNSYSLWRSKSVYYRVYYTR

Experiment [2] has as its target T2, OSBP (mammalian two-hybrid fusion) (UniProt P22059 1-807).
T2 construct: two-hybrid construct not described; Two-hybrid construct not described in the methods; source: Vero cells, transfected, mammalian two-hybrid fusion
T2 sequence (looked up): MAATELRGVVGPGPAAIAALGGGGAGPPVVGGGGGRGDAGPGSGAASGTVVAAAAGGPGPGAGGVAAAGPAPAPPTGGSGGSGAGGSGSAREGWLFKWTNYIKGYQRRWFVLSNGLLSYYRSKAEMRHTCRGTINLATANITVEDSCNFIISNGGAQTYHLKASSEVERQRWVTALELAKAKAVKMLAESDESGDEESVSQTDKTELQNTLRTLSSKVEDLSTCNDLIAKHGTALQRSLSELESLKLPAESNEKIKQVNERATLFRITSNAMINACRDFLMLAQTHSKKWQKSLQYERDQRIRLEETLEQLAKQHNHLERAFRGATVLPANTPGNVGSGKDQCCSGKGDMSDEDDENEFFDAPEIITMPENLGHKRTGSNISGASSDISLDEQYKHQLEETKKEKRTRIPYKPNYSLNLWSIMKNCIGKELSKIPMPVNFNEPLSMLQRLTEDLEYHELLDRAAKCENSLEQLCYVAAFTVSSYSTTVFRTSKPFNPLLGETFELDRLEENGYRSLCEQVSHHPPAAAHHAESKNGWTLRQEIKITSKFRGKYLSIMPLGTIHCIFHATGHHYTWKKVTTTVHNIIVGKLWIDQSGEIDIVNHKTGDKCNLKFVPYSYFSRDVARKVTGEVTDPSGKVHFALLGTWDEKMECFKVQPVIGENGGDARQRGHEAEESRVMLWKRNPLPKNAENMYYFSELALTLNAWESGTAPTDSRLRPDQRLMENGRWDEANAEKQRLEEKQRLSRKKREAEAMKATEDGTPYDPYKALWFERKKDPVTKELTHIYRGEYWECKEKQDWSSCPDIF

Experiment [3] has as its target T3, PI4KB (mammalian two-hybrid fusion) (UniProt Q9UBF8 1-816).
T3 construct: PI4KB, Golgi protein; two-hybrid construct not described; Two-hybrid construct not described in the methods; also called phosphatidylinositol 4-kinase IIIβ; source: Vero cells, transfected, mammalian two-hybrid fusion

T3 sequence (Q9UBF8 whole entry, the tested form may be a part): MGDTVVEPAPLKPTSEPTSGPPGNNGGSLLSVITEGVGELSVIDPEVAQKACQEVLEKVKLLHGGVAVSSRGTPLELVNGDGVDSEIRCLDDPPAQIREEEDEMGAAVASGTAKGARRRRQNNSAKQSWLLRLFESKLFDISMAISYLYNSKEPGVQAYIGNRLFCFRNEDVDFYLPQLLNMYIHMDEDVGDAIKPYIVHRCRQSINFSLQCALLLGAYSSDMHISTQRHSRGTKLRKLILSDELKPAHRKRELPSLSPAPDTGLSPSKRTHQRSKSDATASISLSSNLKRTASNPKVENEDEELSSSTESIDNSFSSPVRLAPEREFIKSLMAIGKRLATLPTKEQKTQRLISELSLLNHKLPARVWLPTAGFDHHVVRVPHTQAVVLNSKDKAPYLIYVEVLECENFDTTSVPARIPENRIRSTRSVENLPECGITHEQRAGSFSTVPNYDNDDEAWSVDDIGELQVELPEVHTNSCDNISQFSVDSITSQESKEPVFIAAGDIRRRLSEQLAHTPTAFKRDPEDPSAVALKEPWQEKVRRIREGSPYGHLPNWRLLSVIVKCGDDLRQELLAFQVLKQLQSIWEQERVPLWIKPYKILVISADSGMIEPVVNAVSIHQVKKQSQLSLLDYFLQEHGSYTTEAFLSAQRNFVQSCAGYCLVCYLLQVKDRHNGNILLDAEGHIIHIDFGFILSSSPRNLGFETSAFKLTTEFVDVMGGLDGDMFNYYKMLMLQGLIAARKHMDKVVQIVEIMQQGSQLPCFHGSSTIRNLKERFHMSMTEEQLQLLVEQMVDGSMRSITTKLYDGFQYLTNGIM

B1: IFITM1 (mammalian two-hybrid fusion) (natural protein, human, UniProt P13164 1-125, looked up)
chain: MHKEEHEVAVLGPPPSTILPRSTVINIHSETSVPDHVVWSLFNTLFLNWCCLGFIAFAYSVKSRDRKMVGDVTGAQAYASTAKCLNIWALILGILMTIGFILLLVFGSVTVYHIMLQIIQEKRGY
notes: IFITM1, human; coding region amplified by PCR from an OriGene cDNA clone; one fusion partner at a time; also called interferon-induced transmembrane protein 1; pACT-IFITM1; source: Vero cells, transfected, mammalian two-hybrid fusion
With B1, the “fold increase in luciferase activity” value in experiment [1] is 84.2 fold; in experiment [2] it was 7.8 fold; in experiment [3], 8.2 fold.

Values taken from article PMC10256215, “IFITM1 enhances nonenveloped viral RNA replication by facilitating cholesterol transport to the Golgi” (PLOS Pathogens, 2023).
